“And” between values parts separate entries of the source, which are not always exact repeats. Equal entries are not always repeated. Square brackets hold non-standard residues; d marks the D form. pY = N[C@@H](Cc1ccc(OP(=O)(O)O)cc1)C(=O)O
Key:
Conditions in all cases: both partners purified
[1] = biological target: T1, RasGAP^232 (p120RasGAP N-SH2, SH3 and C-SH2 domains, residues 174-444) (human, UniProt P20936 174-444, C236 | C261 | C372 | C402); test: ITC; protein in the 190 ul sample cell, titrated 20 times with 2.5 ul peptide from the syringe; 20 mM Tris pH 8, 250 mM NaCl; Nano ITC (TA Instruments); independent binding model
T1 construct: p120RasGAP (RASA1), human, UniProt P20936, residues 174-444 (N-SH2, SH3, C-SH2), with four cysteine to serine mutations; also called WT RasGAP^232; apo RasGAP^232; source: E. coli Rosetta (DE3), purified (Ni-NTA, TEV cleavage, anion exchange, SEC)
T1 sequence (looked up): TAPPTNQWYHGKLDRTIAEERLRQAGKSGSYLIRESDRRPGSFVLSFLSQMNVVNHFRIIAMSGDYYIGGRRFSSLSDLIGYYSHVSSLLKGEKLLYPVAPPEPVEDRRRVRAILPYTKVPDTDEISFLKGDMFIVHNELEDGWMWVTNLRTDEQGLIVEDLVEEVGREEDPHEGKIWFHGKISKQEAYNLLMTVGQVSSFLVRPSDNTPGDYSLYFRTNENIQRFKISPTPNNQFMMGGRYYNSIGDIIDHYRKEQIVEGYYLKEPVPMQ

[2] = biological target: T2, RasGAP^232(mut) (RasGAP^232 with R398E/K400E in the C-SH2 domain) (human, UniProt P20936 174-444, R398E | K400E | C236 | C261 | C372 | C402); test: as above
T2 construct: p120RasGAP (RASA1), human, UniProt P20936, residues 174-444, mutant of RasGAP^232 in the C-SH2 domain; also called C-SH2 mutant; source: E. coli Rosetta (DE3), purified (same protocol as the WT: Ni-NTA, TEV cleavage, anion exchange, SEC)
T2 sequence (looked up): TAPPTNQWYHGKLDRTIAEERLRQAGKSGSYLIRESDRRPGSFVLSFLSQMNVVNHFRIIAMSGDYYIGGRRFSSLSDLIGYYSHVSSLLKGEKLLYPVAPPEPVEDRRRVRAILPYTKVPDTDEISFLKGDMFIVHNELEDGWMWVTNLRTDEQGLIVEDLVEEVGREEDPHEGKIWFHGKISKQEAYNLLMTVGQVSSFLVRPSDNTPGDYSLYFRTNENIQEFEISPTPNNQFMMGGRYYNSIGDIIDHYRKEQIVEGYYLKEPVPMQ

[3] = biological target: T3, RasGAP^232(mut) (RasGAP^232 with R398E/K400E in the C-SH2 domain) (human, UniProt P20936 174-444, C236S | C261S | C372S | C402S | R398E | K400E); test: ITC; RasGAP^232 protein (WT or mutant) in the 190 µl sample cell, peptide in the syringe, 20 injections of 2.5 µl; 20 mM Tris pH 8, 250 mM NaCl; Nano ITC (TA Instruments); blank (constant) and independent models; values of single trials, averages and stdev
T3 construct: p120RasGAP, human, UniProt P20936, residues 174-444; Made by site-directed mutagenesis of RasGAP^232, which holds the four cysteine to serine mutations; also called C-SH2 mutant; source: E. coli Rosetta (DE3), purified (same protocol as the WT counterpart); not shown: His6, N-terminal, cleaved
T3 sequence (looked up): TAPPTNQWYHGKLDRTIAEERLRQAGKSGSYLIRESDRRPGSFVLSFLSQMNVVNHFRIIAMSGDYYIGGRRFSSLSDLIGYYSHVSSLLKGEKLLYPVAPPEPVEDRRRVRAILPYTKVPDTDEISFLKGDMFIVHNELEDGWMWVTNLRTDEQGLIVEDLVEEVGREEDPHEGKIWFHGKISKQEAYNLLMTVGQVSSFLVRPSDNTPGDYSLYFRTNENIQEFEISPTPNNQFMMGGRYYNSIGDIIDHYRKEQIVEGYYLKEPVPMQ

B1: doubly phosphorylated Dok1 peptide (residues 291-322, pY296 and pY315) (peptide)
peptide: Ac-SPPAL[pY]AEPLDSLRIAPCPSQDSL[pY]SDPLDST-NH2
SMILES: CC[C@H](C)[C@H](NC(=O)[C@H](CCCNC(=N)N)NC(=O)[C@H](CC(C)C)NC(=O)[C@H](CO)NC(=O)[C@H](CC(=O)O)NC(=O)[C@H](CC(C)C)NC(=O)[C@@H]1CCCN1C(=O)[C@H](CCC(=O)O)NC(=O)[C@H](C)NC(=O)[C@H](Cc1ccc(OP(=O)(O)O)cc1)NC(=O)[C@H](CC(C)C)NC(=O)[C@H](C)NC(=O)[C@@H]1CCCN1C(=O)[C@@H]1CCCN1C(=O)[C@H](CO)NC(C)=O)C(=O)N[C@@H](C)C(=O)N1CCC[C@H]1C(=O)N[C@@H](CS)C(=O)N1CCC[C@H]1C(=O)N[C@@H](CO)C(=O)N[C@@H](CCC(N)=O)C(=O)N[C@@H](CC(=O)O)C(=O)N[C@@H](CO)C(=O)N[C@@H](CC(C)C)C(=O)N[C@@H](Cc1ccc(OP(=O)(O)O)cc1)C(=O)N[C@@H](CO)C(=O)N[C@@H](CC(=O)O)C(=O)N1CCC[C@H]1C(=O)N[C@@H](CC(C)C)C(=O)N[C@@H](CC(=O)O)C(=O)N[C@@H](CO)C(=O)N[C@H](C(N)=O)[C@@H](C)O
notes: Dok1, UniProt Q99704, residues 291-322; also called pYpY Dok1; source: synthetic peptide, bought: GenScript
**Q.** Which Kd [1] does the source give for B1 here?
**A.** Its Kd is 0.03 ± 0.02 µM.

**Q.** And the dH [1]?
**A.** Its dH is -18.6 ± 0.717 kcal/mol.

**Q.** And the “stoichiometry N” value [1]?
**A.** The value was 0.8 ± 0.1.

B2: singly phosphorylated EphB4 peptide pY596 (peptide)
peptide: Ac-DPFT[pY]EDPNE-NH2
SMILES: CC(=O)N[C@@H](CC(=O)O)C(=O)N1CCC[C@H]1C(=O)N[C@@H](Cc1ccccc1)C(=O)N[C@H](C(=O)N[C@@H](Cc1ccc(OP(=O)(O)O)cc1)C(=O)N[C@@H](CCC(=O)O)C(=O)N[C@@H](CC(=O)O)C(=O)N1CCC[C@H]1C(=O)N[C@@H](CC(N)=O)C(=O)N[C@@H](CCC(=O)O)C(N)=O)[C@@H](C)O
notes: EphB4 juxtamembrane region, UniProt P54760; also called pY596 EphB4; source: synthetic peptide, bought: GenScript
**Q.** With B2 as the binder, how does the Kd [2] read?
**A.** Its Kd is 21 ± 3 µM.

**Q.** And the dH [2]?
**A.** The dH was -5.26 ± 0.956 kcal/mol.

**Q.** What about the “stoichiometry N” value [2] of the same binder?
**A.** The value was 0.6 ± 0.2.

B3: singly phosphorylated EphB4 peptide pY590 (peptide)
peptide: Ac-GTKV[pY]IDPFT-NH2
SMILES: CC[C@H](C)[C@H](NC(=O)[C@H](Cc1ccc(OP(=O)(O)O)cc1)NC(=O)[C@@H](NC(=O)[C@H](CCCCN)NC(=O)[C@@H](NC(=O)CNC(C)=O)[C@@H](C)O)C(C)C)C(=O)N[C@@H](CC(=O)O)C(=O)N1CCC[C@H]1C(=O)N[C@@H](Cc1ccccc1)C(=O)N[C@H](C(N)=O)[C@@H](C)O
notes: EphB4, UniProt P54760, residues 586-595; also called pY590 EphB4; source: synthetic peptide, bought: GenScript
**Q.** What does the source list for B3?
**A.** Kd [3]: 24.2 µM and 14.6 µM and 9.7 µM; stoichiometry N [3]: 0.7 and 0.8
